Substrate in the data set “purified protein”: Nc1ccn([C@H]2C[C@H](O)[C@@H](COP(=O)(O)OP(=O)(O)OP(=O)(O)O)O2)c(=O)n1
Briefly: purified protein. Particulars: apparent Km, 40 °C, primer P1 / template T1, misinsertion, 0.0125 U/μL enzyme.

Substrate in data set [1]: Cc1cn([C@H]2C[C@H](O)[C@@H](COP(=O)(O)OP(=O)(O)OP(=O)(O)O)O2)c(=O)[nH]c1=O
The data set is described as follows: single nucleotide primer extension, 6-FAM primer, denaturing PAGE. The data set is classed as biochemical, Thermococcus litoralis. Particulars: apparent Km, 40 °C, primer P1 / template T1, correct insertion, 0.0125 U/μL enzyme.

Substrate in data set [2]: NCCCCCCNC(=O)Cc1cn([C@@H]2O[C@H](COP(=O)(O)OP(=O)(O)OP(=O)(O)O)[C@@H](O)[C@@H]2O)c(=O)[nH]c1=O
The data set is described as above. The data set is classed as biochemical, Thermococcus litoralis. Conditions: apparent Km, 40 °C, primer P1 / template T1, correct insertion, 0.0125 U/μL enzyme.

Substrate in data set [3]: NCCCCCCNC(=O)Cc1cn([C@H]2C[C@H](O)[C@@H](COP(=O)(O)OP(=O)(O)OP(=O)(O)O)O2)c(=O)[nH]c1=O
The description is as above. Type of data set: biochemical, Thermococcus litoralis. Particulars: apparent Km, 40 °C, primer P1 / template T1, correct insertion, 0.0125 U/μL enzyme.

A word on the Km: it is the concentration of substrate that gives half-maximal velocity. The kcat is the maximal rate divided by the concentration of active sites.

B1: Vent(exo-) DNA polymerase (Thermococcus litoralis; D141A/E143A) (protein)
chain 1: MILDTDYITKDGKPIIRIFKKENGEFKIELDPHFQPYIYALLKDDSAIEEIKAIKGERHGKTVRVLDAVKVRKKFLGREVEVWKLIFEHPQDVPAMRGKIREHPAVVDIYEYDIPFAKRYLIDKGLIPMEGDEELKLLAFAIATFYHEGDEFGKGEIIMISYADEEEARVITWKNIDLPYVDVVSNEREMIKRFVQVVKEKDPDVIITYNGDNFDLPYLIKRAEKLGVRLVLGRDKEHPEPKIQRMGDSFAVEIKGRIHFDLFPVVRRTINLPTYTLEAVYEAVLGKTKSKLGAEEIAAIWETEESMKKLAQYSMEDARATYELGKEFFPMEAELAKLIGQSVWDVSRSSTGNLVEWYLLRVAYARNELAPNKPDEEEYKRRLRTTYLGGYVKEPEKGLWENIIYLDFRSLYPSIIVTHNVSPDTLEKEGCKNYDVAPIVGYRFCKDFPGFIPSILGDLIAMRQDIKKKMKSTIDPIEKKMLDYRQRAIKLLAN
chain 2: SYYGYMGYPKARWYSKECAESVTAWGRHYIEMTIREIEEKFGFKVLYAD
chain 3: TDGFYATIPGEKPELIKKKAKEFLNYINSKLPGLLELEYEGFYLRGFFVTKKRYAVIDEEGRITTRGLEVVRRDWSEIAKETQAKVLEAILKEGSVEKAVEVVRDVVEKIAKYRVPLEKLVIHEQITRDLKDYKAIGPHVAIAKRLAARGIKVKPGTIISYIVLKGSGKISDRVILLTEYDPRKHKYDPDYYIENQVLPAVLRILEAFGYRKEDLRYQSSKQTGLDAWLKR
notes: commercial exonuclease-deficient enzyme (New England Biolabs), mature intein-free form
Take B1: the Km was found to be 1700 µM in the data set “purified protein”, 3 µM in data set [1], 4.4 µM in data set [2] and 2.7 µM in data set [3]. Also, the kcat was 0.00233 s⁻¹ in “purified protein”, 0.00567 s⁻¹ in data set [1], 0.000817 s⁻¹ in data set [2] and 0.00483 s⁻¹ in data set [3].

(Values after PMC6259326, “Study on Suitability of KOD DNA Polymerase for Enzymatic Production of Artificial Nucleic Acids Using Base/Sugar Modified Nucleoside Triphosphates” (Molecules, 2010).)
